In patent US20120141482A1:
Where “and” joins values, the source holds several entries; their conditions need not be identical. Equal values may be shown once. Each block holds one substance with its values, some of them ahead of it.

Columns and labels:
[1] = molecular target: TCR of 5KC, a moth cytochrome C (MCC)-specific, I-E^k-restricted T cell hybridoma; experiment: cell-based or functional assay
[2] = molecular target: TCR of 5KC, a moth cytochrome C (MCC)-specific, I-E^k-restricted T cell hybridoma; experiment: flow cytometry on 5KC hybridoma cells; reference cells without primary reagent
[3] = molecular target: TCR of 5KC, a moth cytochrome C (MCC)-specific, I-E^k-restricted T cell hybridoma; experiment: flow cytometry on 5KC hybridoma cells
[4] = molecular target: QL9/H-2 L^d complex (mouse) (UniProt P01897); experiment: flow cytometry, serial dilutions on QL9-loaded RMA-S L^d cells, detected with H57-FITC
[5] = molecular target: p2Ca/H-2 L^d complex (mouse) (UniProt P01897); experiment: flow cytometry competition with constant FITC-30.5.7 Fab on peptide-loaded RMA-S L^d cells
[6] = molecular target: p2Ca/H-2 L^d complex (mouse) (UniProt P01897); experiment: flow cytometry, serial dilutions on p2Ca-loaded RMA-S L^d cells, detected with H57-FITC
[7] = molecular target: p2Ca/H-2 L^d complex (mouse) (UniProt P01897); experiment: flow cytometry competition with FITC-30.5.7 Fab on peptide-loaded RMA-S L^d cells
[8] = molecular target: p2Ca/H-2 L^d complex (mouse) (UniProt P01897); experiment: cell-based or functional assay
SIY/H-2 K^bm3 complex [9] = experiment: cell-based or functional assay
[10] = molecular target: SIY/H-2 K^b complex (mouse) (UniProt P01901); experiment: cell-based or functional assay
dEV-8/H-2 K^bm3 complex = experiment: cell-based or functional assay
[11] = molecular target: QL9/H-2 L^d complex (mouse) (UniProt P01897); experiment: direct flow cytometry on peptide-loaded L^d cells
[12] = molecular target: pVSV/H-2 K^b complex (mouse) (UniProt P01901); experiment: flow cytometry on T2 K^b cells, control peptide (background)
[13] = molecular target: p2Ca/H-2 L^d complex (mouse) (UniProt P01897); experiment: flow cytometry on L^d cells loaded with graded peptide concentrations; highest value
[14] = molecular target: unloaded H-2 L^d molecules on RMA-S L^d cells (mouse) (UniProt P01897); experiment: direct flow cytometry on RMA-S L^d cells, unloaded (background)
[15] = molecular target: SIY/H-2 K^b complex (mouse) (UniProt P01901); experiment: flow cytometry on peptide-loaded T2 K^b cells
[16] = molecular target: H-2 L^d loaded with an irrelevant H-2 L^d binding peptide (mouse) (UniProt P01897); experiment: direct flow cytometry on RMA-S L^d cells, irrelevant peptide (background)
SIY/H-2 K^bm3 complex [17] = experiment: flow cytometry on peptide-loaded T2 K^bm3 cells
[18] = molecular target: SL9/H-2 L^d complex (mouse) (UniProt P01897); experiment: direct flow cytometry on peptide-loaded RMA-S L^d cells
[19] = molecular target: unloaded H-2 L^d molecules on RMA-S L^d cells (mouse) (UniProt P01897); experiment: direct flow cytometry on RMA-S L^d cells without peptide
[20] = molecular target: QL9/H-2 L^d complex (mouse) (UniProt P01897); experiment: flow cytometry on L^d cells loaded with graded peptide concentrations; highest value
[21] = molecular target: serologically reactive H-2 L^d on RENCA cells (mouse) (UniProt P01897); experiment: flow cytometry on RENCA cells stimulated with 5-50 units/ml γ-IFN
[22] = molecular target: serologically reactive H-2 L^d on RENCA cells (mouse) (UniProt P01897); experiment: flow cytometry on unstimulated RENCA cells

Sequence of 2C TCR on 2C CTL (A2KF29 whole entry): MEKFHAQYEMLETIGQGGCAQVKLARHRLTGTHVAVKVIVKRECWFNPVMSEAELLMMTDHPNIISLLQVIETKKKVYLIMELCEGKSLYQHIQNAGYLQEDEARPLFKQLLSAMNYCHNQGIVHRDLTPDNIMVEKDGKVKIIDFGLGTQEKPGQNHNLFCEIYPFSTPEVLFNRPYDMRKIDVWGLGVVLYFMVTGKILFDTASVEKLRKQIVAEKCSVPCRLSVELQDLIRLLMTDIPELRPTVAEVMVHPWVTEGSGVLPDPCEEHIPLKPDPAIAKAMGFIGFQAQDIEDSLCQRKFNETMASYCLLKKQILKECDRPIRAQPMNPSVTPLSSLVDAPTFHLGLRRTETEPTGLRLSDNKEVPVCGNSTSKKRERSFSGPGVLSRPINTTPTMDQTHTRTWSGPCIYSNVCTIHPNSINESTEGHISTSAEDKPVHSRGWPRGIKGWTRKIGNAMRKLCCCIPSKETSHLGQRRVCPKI
Sequence of QL9/H-2 L^d complex (mouse) (P01897 25-309, one chain of several): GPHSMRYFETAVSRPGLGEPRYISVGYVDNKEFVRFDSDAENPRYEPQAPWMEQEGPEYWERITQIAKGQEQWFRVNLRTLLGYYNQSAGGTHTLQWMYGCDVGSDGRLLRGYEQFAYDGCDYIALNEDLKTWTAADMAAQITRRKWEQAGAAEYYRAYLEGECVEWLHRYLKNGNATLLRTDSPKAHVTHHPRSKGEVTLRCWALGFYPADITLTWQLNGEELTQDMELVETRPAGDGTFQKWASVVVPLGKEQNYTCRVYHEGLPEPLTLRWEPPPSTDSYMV
Sequence of p2Ca/H-2 L^d complex (mouse) (P01897 25-309, one chain of several): as above
Sequence of SIY/H-2 K^b complex (mouse) (P01901 22-369, one chain of several): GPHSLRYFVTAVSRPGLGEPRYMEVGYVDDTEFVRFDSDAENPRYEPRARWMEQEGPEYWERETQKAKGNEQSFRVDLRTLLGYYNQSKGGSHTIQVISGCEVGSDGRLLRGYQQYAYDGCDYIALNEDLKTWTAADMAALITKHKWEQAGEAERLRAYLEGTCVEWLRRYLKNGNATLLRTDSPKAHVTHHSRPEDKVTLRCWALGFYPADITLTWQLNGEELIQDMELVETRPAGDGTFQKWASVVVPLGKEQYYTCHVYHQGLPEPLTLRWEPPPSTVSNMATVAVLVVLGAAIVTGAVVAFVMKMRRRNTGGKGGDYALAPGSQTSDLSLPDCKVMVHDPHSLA
Sequence of unloaded H-2 L^d molecules on RMA-S L^d cells (mouse) (P01897 25-309): as the sequence (P01897 25-309, one chain of several) above
Sequence of pVSV/H-2 K^b complex (mouse) (P01901 22-369, one chain of several): as the sequence (P01901 22-369, one chain of several) above
Sequence of H-2 L^d loaded with an irrelevant H-2 L^d binding peptide (mouse) (P01897 25-309): as the sequence (P01897 25-309, one chain of several) above
Sequence of SL9/H-2 L^d complex (mouse) (P01897 25-309, one chain of several): as above

Substance: 2C TCR on 2C CTL (from UniProt A2KF29)
2C CTL mediated lysis of p2Ca-loaded T2 L^d cells, LD50 (peptide concentration) [8]: 0.5 ng/mL
2C CTL mediated lysis, LD50 (peptide concentration) (SIY/H-2 K^bm3 complex [9]): 100 ng/mL
2C CTL mediated lysis, LD50 (peptide concentration) [10]: 10 ng/mL
2C CTL mediated lysis, LD50 (peptide concentration) (dEV-8/H-2 K^bm3 complex): 0.5 ng/mL and 1 ng/mL

Substance: soluble divalent 2C TCR/Ig (from UniProt A2KF29)
MCF [11]: 3000 MCF
MCF [12]: 14 MCF
MCF [13]: 600 MCF
lowest concentration at which binding was detected [4]: < 1 nM
Kapp [5]: 108 nM
MCF [14]: 10 MCF
MCF [15]: 276 MCF
concentration required to detect binding [6]: 3 nM
MCF [16]: 10 MCF
MCF (SIY/H-2 K^bm3 complex [17]): 36 MCF
MCF [18]: 100 MCF

Further lines, results first:

IL-2 production, fold stimulation over anti-CD3 mAb at 92 ng/ml [1]: 10 fold
fold increase of mean channel fluorescence [2]: 15 fold
lowest concentration at which specific staining was seen [3]: 5 nM
mean channel fluorescence [3]: 300 MCF
Substance: soluble divalent ^MCCI-E^k/IgG (peptide-MHC)

concentration required to detect binding [4]: > 100 nM
Kapp [5]: > 2000 nM
concentration required to detect binding [6]: > 3000 nM
Kd [7]: > 2000 nM
Substance: soluble monovalent 2C TCR (from UniProt A2KF29)

fold increase of mean channel fluorescence, cells at 27° C. against 37° C. [19]: 5 fold
MCF [13]: 3000 MCF
MCF [20]: 3000 MCF
MCF [21]: 2670 to 3040 MCF
MCF [22]: 500 MCF
Substance: mAb 30.5.7 (antibody)
